Data taken from patent US20110052525A1, “Breaking Immunological Tolerance with a Genetically Encoded Unnatural Amino Acid” (THE SCRIPPS RESEARCH INSTITUTE, priority 2008, published 2011).

Legend:
[1] = TR-FRET retinol binding assay of mRBP4 proteins; settings: retinol binding affinity, Cy5-labeled retinol
Procedure: The binding affinities of mRBP4 proteins were determined by a TR-FRET retinol binding assay.
WT and pNO2Phe mRBP4 mutant proteins were labeled with biotin using the Sulfo-NHS-Biotin kit (Pierce, Rockford, Ill.) according to manufacturer instructions. For determination of retinol binding activity, 10 nM biotin-labeled RBP4 was mixed with 1 nM Streptavidin-Europium chelate (LANCE® Eu-W8044 Streptavidin, Perkin Elmer, Foster City, Calif.). Increasing concentrations of Cy5-labeled retinol were added to the reaction and retinol binding was assessed by homogeneous time-resolved fluorescence resonance energy transfer (TR-FRET).

mRBP4 = molecular target: T1, mRBP4 (Mus musculus, UniProt Q00724); assay: Serum IgG titers by ELISA after RIMMS immunization of mice with mRBP4 variants; assay type: in vivo
T1 construct: The cDNA encoding murine RBP4 (aa 19-201); made in house; host or cells: E. coli BL21(DE3)
Procedure: 30 μl of 0.5 μg/ml protein was used to coat the wells of Maxisorp 384-well plates (Nunc, Rochester, N.Y.) overnight at 4° C. After washing with PBS+0.05% Tween 20 (PBST), the coated plates were blocked with 80 μl of 1% BSA in PBS, and washed again with PBST. The plates were sequentially incubated with 20 μl of primary antibody or serum diluted in 1% BSA in PBS, 20 μl of HRP-conjugated goat anti-mouse IgG or anti-mouse IgM (Jackson ImmunoResearch Laboratories, West Grove, Pa.), and 20 μl of TMB substrate (KPL, Gaithersburg, Md.), and read at an absorbance of 650 nm. Between incubations, the plates were washed at least six times with PBST.
Before measurement, serum samples were diluted 1:1,000 with 1% BSA in PBS buffer.

Substance: WT mRBP4: wild-type murine retinol binding protein 4
- Kd [1]: 171 nM
- serum IgG titers against WT mRBP4 (mRBP4; Bcl2 mice, RIMMS, ELISA (FIG. 19)): insignificant serum IgG titers
- serum IgG titers against WT mRBP4 (mRBP4; C57BL/6 mice, ELISA (FIG. 26)): insignificant serum IgG titers
